According to PMC2527209:

Molecular target: non-translating mammalian (canine) ribosome (canine)
Experiment: co-sedimentation

stoichiometry N: 0.8
Substance: Sec61 complex (from UniProt P38377 1-476; P60467 1-96; P60058 1-68)
